The values that follow come from US20220340684A1.

For experiment [1], the target named is Recombinant human TRIM21 PRYSPRY domain (His-tagged, expressed in E. coli BL21 (DE3)) (human) (UniProt P19474). In words: SPR (ProteON XPR36), antibody amine-coupled to GLC chip, TRIM21 PRYSPRY as analyte, Langmuir 1:1.
For experiment [2] the target is unchanged. In words: SPR, antibody immobilized, TRIM21 PRYSPRY as analyte.
The target of experiment [3] is Human TRIM21 (endogenous, cytosolic, in moDC and HeLa cells) (human) (UniProt P19474). In words: cell-based or functional assay.
In experiment [4] the target is Recombinant human TRIM21 PRYSPRY domain (His-tagged, expressed in E. coli BL21 (DE3)) (human) (UniProt P19474). Nature of the experiment: SPR, antibody immobilized, TRIM21 PRYSPRY as analyte; the column's head prints (M), the text gives 125 nM. For orientation: In SPR one partner is held on a chip, and binding of the other changes the refractive index at the surface.

pKd: −log10 of the molar value.

Sequence of Recombinant human TRIM21 PRYSPRY domain (His-tagged, expressed in E. coli BL21 (DE3)) (human) (P19474 287-475): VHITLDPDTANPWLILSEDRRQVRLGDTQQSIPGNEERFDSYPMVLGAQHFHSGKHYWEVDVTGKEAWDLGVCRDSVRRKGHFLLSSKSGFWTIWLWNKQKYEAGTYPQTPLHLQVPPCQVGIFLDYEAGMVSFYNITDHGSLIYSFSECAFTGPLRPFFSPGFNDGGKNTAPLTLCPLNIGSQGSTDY
Sequence of Human TRIM21 (endogenous, cytosolic, in moDC and HeLa cells) (human) (P19474 whole entry, the tested form may be a part): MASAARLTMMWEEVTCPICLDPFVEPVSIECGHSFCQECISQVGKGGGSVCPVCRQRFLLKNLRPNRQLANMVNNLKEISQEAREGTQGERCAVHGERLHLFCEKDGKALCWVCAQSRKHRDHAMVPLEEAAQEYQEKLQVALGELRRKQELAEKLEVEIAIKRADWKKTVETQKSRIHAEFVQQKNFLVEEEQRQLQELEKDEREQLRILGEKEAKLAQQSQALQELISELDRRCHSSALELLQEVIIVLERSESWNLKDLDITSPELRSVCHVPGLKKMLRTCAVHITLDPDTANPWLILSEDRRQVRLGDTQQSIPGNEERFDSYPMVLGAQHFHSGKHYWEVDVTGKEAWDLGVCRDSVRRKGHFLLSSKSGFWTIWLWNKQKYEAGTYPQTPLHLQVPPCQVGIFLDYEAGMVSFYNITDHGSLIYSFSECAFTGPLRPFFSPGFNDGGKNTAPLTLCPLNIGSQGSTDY

Turning to “Fc-unmodified human IgG1 (anti-DEC205, variable domains of 3G9-2D2, wildtype human IgG1 constant regions) (antibody)”, in experiment [1], the negative-log Kd (pKd) (commonly the negative decadic logarithm of the Kd, by convention in mol/L) is 7.33.

“V1 chimeric IgG1 (9C12 variable domains, human IgG1 with 256P/434R/436F/440I Fc) (antibody)”: the pKd in experiment [2] was 7.97.

In experiment [3], “Wildtype chimeric IgG1 (anti-Ad5 hexon, mouse 9C12 variable domains, wildtype human IgG1 constant regions) (antibody)” returned an IC50 of ADIN of Ad5-eGFP infection in moDCs, MOI 400 of 3 nM and an IC50 of antibody-dependent intracellular neutralization (ADIN) of Ad5-eGFP infection in HeLa cells, MOI 1.2 of 900 nM. The pKd in experiment [4] was 6.90.

For the substance “V3 chimeric IgG1 (9C12 variable domains, human IgG1 with 256P/433T/434R/440I Fc) (antibody)”, the pKd in experiment [2] was 9.68. Take “V2 chimeric IgG1 (9C12 variable domains, human IgG1 with 256P/433T/436F/440I Fc) (antibody)”: the pKd in experiment [2] was 5.79. The same measure, in the same setting: next, “V4 chimeric IgG1 (9C12 variable domains, human IgG1 with 256P/433T/434R/436F Fc) (antibody)”: 9.56; “V5 chimeric IgG1 (9C12 variable domains, human IgG1 with 433T/434R/436F/440I Fc, Thr at 256) (antibody)”: 7.63.
